Test results reported in patent US20090029421, “Recombinase polymerase amplification” (published 2009).

Columns and labels:
Assay in all cases: competition; excess ssDNA oligo titrates gp32 off probe
Conditions in all cases: tags: C-terminal His6
gp32 (T4) = target: T1, gp32 (T4) (Enterobacteria phage T4, UniProt P03695 SEQ:1-301)
T1 sequence: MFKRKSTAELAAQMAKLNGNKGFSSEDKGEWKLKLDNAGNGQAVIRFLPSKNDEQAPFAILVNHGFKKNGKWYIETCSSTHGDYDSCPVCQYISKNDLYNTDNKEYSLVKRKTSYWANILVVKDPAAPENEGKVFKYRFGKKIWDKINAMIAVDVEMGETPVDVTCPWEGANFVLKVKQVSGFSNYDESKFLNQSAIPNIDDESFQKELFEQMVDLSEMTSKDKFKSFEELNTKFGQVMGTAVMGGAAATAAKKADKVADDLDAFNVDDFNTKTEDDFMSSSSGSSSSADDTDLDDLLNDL
Method: (§1) In this experiment, the effects of these challenges on Rb69 gp32, T4 gp32 and Aeh1 gp32 were compared.
(§2) An experiment was performed to assess whether gp32 molecules from different species of origin were biochemically distinct from one another. Experimental conditions were as follows: reactions were performed in 50 ul volume; final concentration of probe (SA-Tamra2; 5′-tgttaattgagcaagtgtatagagcattraygabtatgcgtggag-3′ (SEQ ID NO:126), here y=thf, b=BHQ2-dT, r=TAMRA-dT, 3′=Bio-TEG) was 100 nM; Rb69 pg32 was used at final concentration of 80 ng/μl, Nfo was present at 33 ng/μl; after 350 sec either water, dsDNA (550 ng human genomic DNA; i.e. approximately 10× mass of oligonucleotide probe) or ssDNA ([…] oligonucleotide of sequence 5′[…]-3′ (SEQ ID NO:127)) was added; buffer conditions were 20 mM Tris-acetate, 50 mM potassium acetate (pH 7.9), 10 mM Magnesium Acetate, 1 mM Dithiothreitol. Measurements were made in a fluorometer manufactured by Embedded System Engineering (ESE, GmbH) with LED excitation of 520 nm and emission at 585 nm.
(§3) Initially, a concentration of gp32 was established which permitted only a very low cutting activity by Nfo nuclease on the fluorophore/quencher probe. At this concentration the availability of gp32 was limited to a minimal quantity for substantial probe protection, and under these conditions it was possible to assess very sensitively whether gp32 was partitioned away from the probe in competition experiments. After monitoring the slow probe cutting for a while, excess double-stranded DNA or single-stranded oligonucleotides were added to assess whether this affected the distribution of gp32 on the probe. […] Clearly Rb69 and Aeh1 gp32 molecules differentiated and partitioned much more effectively in favour of single-stranded DNA than T4 gp32.

gp32 (Rb69) = target: T2, gp32 (Rb69) (Enterobacteria phage RB69)
T2 chain: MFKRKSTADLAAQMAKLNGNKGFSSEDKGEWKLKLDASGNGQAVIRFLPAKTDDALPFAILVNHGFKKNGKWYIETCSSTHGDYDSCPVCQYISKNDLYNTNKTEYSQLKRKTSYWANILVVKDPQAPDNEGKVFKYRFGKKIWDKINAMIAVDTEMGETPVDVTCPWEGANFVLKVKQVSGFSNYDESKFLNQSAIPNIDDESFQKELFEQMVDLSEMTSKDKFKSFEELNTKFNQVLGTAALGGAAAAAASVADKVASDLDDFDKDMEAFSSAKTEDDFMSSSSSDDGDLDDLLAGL
Method: as §1, §2, §3

gp32 (Aeh1) = target: T3, gp32 (Aeh1) (Aeromonas phage Aeh1)
T3 chain: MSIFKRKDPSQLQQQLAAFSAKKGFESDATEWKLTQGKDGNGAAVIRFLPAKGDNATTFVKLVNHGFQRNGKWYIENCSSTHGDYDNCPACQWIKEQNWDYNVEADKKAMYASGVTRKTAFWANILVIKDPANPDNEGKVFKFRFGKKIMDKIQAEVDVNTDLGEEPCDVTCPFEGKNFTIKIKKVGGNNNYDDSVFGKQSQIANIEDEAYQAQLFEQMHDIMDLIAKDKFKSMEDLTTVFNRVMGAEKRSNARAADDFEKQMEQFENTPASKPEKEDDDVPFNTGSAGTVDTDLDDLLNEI
Method: as §1, §2, §3

Measured: binding result

B1: competitor oligonucleotide (ssDNA)
DNA: CTGTATTAGAAGTACATGCTGATCAAGTGACA
binds: gp32 (T4) | gp32 (Rb69) | gp32 (Aeh1)
